US20210332115A1

Molecular target: cynomolgus monkey factor Bb (cynomolgus monkey)
Assay: BLI Octet, biotinylated antibody on SA biosensors

| Binder | Kd [nM] |
| --- | --- |
| Anti-factor Bb mouse monoclonal antibody (antibody, V domains shown) VH: EVQLVESGGALVKPGGSLKLSCAASGFTFSNYAMSWVRQTPEKRLEWVATISNRGSYTYYPDSVKGRFTISRDNAKNTLYLQMSSLRSEDTALYYCARERPMDYWGQGTSVTVSS VL: DIVMTQSHKFMSTSVGDRVSITCKASQDVGTAVAWYQQKPGQSPKLLIYWASTRHTGVPDRFTGSGSGTDFTLTITNVQSEDLAVYFCHQHSSNPLTFGAGTKLELK | 11 |
| VH7/Vκ7 (antibody, V domains shown) VH: EVQLVESGGGLVKPGGSLRLSCAASGFTFSNYAMSWVRQTPEKRLEWVATISNRGSYTYYPDSVKGRFTISRDNAKNSLYLQMNSLRAEDTALYYCARERPMDYWGQGTLVTVSS VL: DIQMTQSPSTLSASVGDRVTITCKASQDVGTAVAWYQQKPGKAPKLLIYWASTRHTGVPDRFSGSGSGTDFTLTISSLQAEDFAVYFCHQHSSNPLTFGQGTKLEIK | 16 |
| VH6/Vκ6 (antibody, V domains shown) VH: EVQLVESGGGLVKPGGSLRLSCAASGFTFSNYAMSWVRQAPGKRLEWVATISNRGSYTYYPDSVKGRFTISRDNAKNSLYLQMNSLRAEDTALYYCARERPMDYWGQGTLVTVSS VL: DIVMTQSPSFLSASVGDRVTITCKASQDVGTAVAWYQQKPGKAPKLLIYWASTRHTGVPDRFTGSGSGTDFTLTISSLQSEDFAVYFCHQHSSNPLTFGQGTKLEIK | 11 |
| VH4/Vκ7 (antibody, V domains shown) VH: EVQLVESGGGLVKPGGSLRLSCAASGFTFSNYAMSWVRQAPGKRLEWVATISNRGSYTYYPDSVKGRFTISRDNAKNSLYLQMSSLRSEDTALYYCARERPMDYWGQGTSVTVSS VL: DIQMTQSPSTLSASVGDRVTITCKASQDVGTAVAWYQQKPGKAPKLLIYWASTRHTGVPDRFSGSGSGTDFTLTISSLQAEDFAVYFCHQHSSNPLTFGQGTKLEIK | 11 |
